How the values were obtained:
CD20 [1] = molecular target: T1, CD20 (UniProt P11836 1-297, limits assumed); test: cell-based or functional assay
T1 sequence (looked up): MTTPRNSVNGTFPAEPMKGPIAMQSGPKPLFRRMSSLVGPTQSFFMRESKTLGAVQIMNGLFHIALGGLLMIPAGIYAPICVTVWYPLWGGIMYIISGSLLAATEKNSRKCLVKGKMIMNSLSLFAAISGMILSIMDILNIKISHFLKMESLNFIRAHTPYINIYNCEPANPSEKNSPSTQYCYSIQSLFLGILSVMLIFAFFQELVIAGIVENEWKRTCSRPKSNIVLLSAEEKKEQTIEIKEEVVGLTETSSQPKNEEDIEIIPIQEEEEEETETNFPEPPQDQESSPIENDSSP

CD19 [2] = molecular target: T2, CD19 (UniProt P15391 20-556, limits assumed); test: cell-based or functional assay
T2 sequence (looked up): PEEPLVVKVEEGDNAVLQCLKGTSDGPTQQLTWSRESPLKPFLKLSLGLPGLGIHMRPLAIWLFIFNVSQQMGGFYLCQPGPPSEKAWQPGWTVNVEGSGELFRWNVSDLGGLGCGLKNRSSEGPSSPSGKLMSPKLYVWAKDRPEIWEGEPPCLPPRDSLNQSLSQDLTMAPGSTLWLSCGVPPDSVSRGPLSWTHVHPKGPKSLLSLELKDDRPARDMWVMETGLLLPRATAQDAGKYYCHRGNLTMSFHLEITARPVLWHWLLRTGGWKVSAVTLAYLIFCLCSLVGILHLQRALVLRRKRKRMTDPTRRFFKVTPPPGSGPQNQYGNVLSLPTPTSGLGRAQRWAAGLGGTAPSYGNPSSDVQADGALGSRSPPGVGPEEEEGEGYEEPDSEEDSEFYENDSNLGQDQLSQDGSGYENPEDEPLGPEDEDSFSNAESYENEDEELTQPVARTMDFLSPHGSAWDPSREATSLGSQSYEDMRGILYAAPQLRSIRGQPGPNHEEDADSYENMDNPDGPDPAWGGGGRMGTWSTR

CD19 [3] = molecular target: T2, CD19; test: cellular binding assay, flow cytometry (gMFI) on OCI-AML3-CD19 cells
CD20 [4] = molecular target: T1, CD20; test: cellular binding assay, flow cytometry (gMFI) on OCI-AML3-CD20 cells

B1: R-TM-19/20_2 (other)
chain 1: not shown
chain 2: GQVQLVQSGAEVKKPGASVKVSCKASGYTFTHYYIYWVRQAPGQGLEWMGGVNPSNGGTHFNEKFKSRVTMTRDTSISTAYMELSRLRSDDTAVYYCARSEYDYGLGFAYWGQGTLVTVSSASTKGPSVFPLAPSSKSTSGGTAALGCLVKDYFPEPVTVSWNSGALTSGVHTFPAVLQSSGLYSLSSVVTVPSSSLGTQTYICNVNHKPSNTKVDKKVEPKSCDKTHTCPPCPAPPVAGPSVFLFPPKPKDTLMISRTPEVTCVVVDVSHEDPEVKFNWYVDGVEVHNAKTKPREEQYNSTYRVVSVLTVLHQDWLNGKEYKCKVSNKGLPSSIEKTISKAKGQPREPQVYTLPPSRDELTKNQVSLWCLVKGFYPSDIAVEWESNGQPENNYKTTPPVLDSDGSFFLYSKLTVDKSRWQQGNVFSCSVMHEALHNHYTQKSLSLSPGK
chain 3: GQVQLVESGGGLVQPGGSLRLSCAASGRTFSNYNMGWFRQAPGQGLEFVAAIDWSGGSPYYADSVKGRFTISRDNSKNTLYLQMNSLRAEDTAVYYCAAPLSYGSTWLADYWGQGTLVTVSSEPKSCDKTHTCPPCPAPPVAGPSVFLFPPKPKDTLMISRTPEVTCVVVDVSHEDPEVKFNWYVDGVEVHNAKTKPREEQYNSTYRVVSVLTVLHQDWLNGKEYKCKVSNKGLPSSIEKTISKAKGQPREPQVYTLPPSRDELTKNQVSLSCAVKGFYPSDIAVEWESNGQPENNYKTTPPVLDSDGSFFLVSKLTVDKSRWQQGNVFSCSVMHEALHNHYTQKSLSLSPGK
notes: also called R-TM 19/20_02
CD20 killing EC50 [pM] (CD20 [1]): 7.2 pM
CD19 killing EC50 [pM] (CD19 [2]): 3.8 pM
EC50 (CD19 [3]): 0.0184 µM
EC50 (CD20 [4]): 0.0436 µM

B2: R-TM-19/20_11 (other)
chain 1: not shown
chain 2: GQVQLVQSGAEVKKPGASVKVSCKASGYTFTHYYIYWVRQAPGQGLEWMGGVNPSNGGTHFNEKFKSRVTMTRDTSISTAYMELSRLRSDDTAVYYCARSEYDYGLGFAYWGQGTLVTVSSASTKGPSVFPLAPSSKSTSGGTAALGCLVKDYFPEPVTVSWNSGALTSGVHTFPAVLQSSGLYSLSSVVTVPSSSLGTQTYICNVNHKPSNTKVDKKVEPKSCDKTHTCPPCPAPPVAGPSVFLFPPKPKDTLMISRTPEVTCVVVDVSHEDPEVKFNWYVDGVEVHNAKTKPREEQYNSTYRVVSVLTVLHQDWLNGKEYKCKVSNKGLPSSIEKTISKAKGQPREPQVYTLPPSRDELTKNQVSLWCLVKGFYPSDIAVEWESNGQPENNYKTTPPVLDSDGSFFLYSKLTVDKSRWQQGNVFSCSVMHEALHNHYTQKSLSLSPGK
chain 3: EVQLVESGGGLVQPGGSLRLSCAASGFSFSDFWMSWVRQAPGKGLEWVATISQAGSEKDYVDSVKGRFTISRDNAKKSLYLQMNSLRAEDTAVYYCASGVYSFDYRGQGTLVTVSSEPKSCDKTHTCPPCPAPPVAGPSVFLFPPKPKDTLMISRTPEVTCVVVDVSHEDPEVKFNWYVDGVEVHNAKTKPREEQYNSTYRVVSVLTVLHQDWLNGKEYKCKVSNKGLPSSIEKTISKAKGQPREPQVYTLPPSRDELTKNQVSLSCAVKGFYPSDIAVEWESNGQPENNYKTTPPVLDSDGSFFLVSKLTVDKSRWQQGNVFSCSVMHEALHNHYTQKSLSLSPGKGGGGSGGGGSGGGGSQVQLVESGGGLVQPGGSLRLSCAASGRTFSNYNMGWFRQAPGQGLEFVAAIDWSGGSPYYADSVKGRFTISRDNSKNTLYLQMNSLRAEDTAVYYCAAPLSYGSTWLADYWGQGTLVTVSS
notes: Three-chain CD19/CD20 targeting module
CD20 killing EC50 [pM] (CD20 [1]): 17.9 pM
CD19 killing EC50 [pM] (CD19 [2]): 3.8 pM
EC50 (CD19 [3]): 0.0052 µM
EC50 (CD20 [4]): 0.062 µM

B3: R-TM-19/20_15 (other)
chain 1: not shown
chain 2: GQVQLVQSGAEVKKPGASVKVSCKASGYTFTHYYIYWVRQAPGQGLEWMGGVNPSNGGTHFNEKFKSRVTMTRDTSISTAYMELSRLRSDDTAVYYCARSEYDYGLGFAYWGQGTLVTVSSASTKGPSVFPLAPSSKSTSGGTAALGCLVKDYFPEPVTVSWNSGALTSGVHTFPAVLQSSGLYSLSSVVTVPSSSLGTQTYICNVNHKPSNTKVDKKVEPKSCDKTHTCPPCPAPPVAGPSVFLFPPKPKDTLMISRTPEVTCVVVDVSHEDPEVKFNWYVDGVEVHNAKTKPREEQYNSTYRVVSVLTVLHQDWLNGKEYKCKVSNKGLPSSIEKTISKAKGQPREPQVYTLPPSRDELTKNQVSLWCLVKGFYPSDIAVEWESNGQPENNYKTTPPVLDSDGSFFLYSKLTVDKSRWQQGNVFSCSVMHEALHNHYTQKSLSLSPGK
chain 3: GQVQLVESGGGLVQPGGSLRLSCAASGRTFSNYNMGWFRQAPGQGLEFVAAIDWSGGSPYYADSVKGRFTISRDNSKNTLYLQMNSLRAEDTAVYYCAAPLSYGSTWLADYWGQGTLVTVSSGGGGSGGGGSQVQLVESGGGLVQPGGSLRLSCAASGRTFSNYNMGWFRQAPGQGLEFVAAIDWSGGSPYYADSVKGRFTISRDNSKNTLYLQMNSLRAEDTAVYYCAAPLSYGSTWLADYWGQGTLVTVSSEPKSCDKTHTCPPCPAPPVAGPSVFLFPPKPKDTLMISRTPEVTCVVVDVSHEDPEVKFNWYVDGVEVHNAKTKPREEQYNSTYRVVSVLTVLHQDWLNGKEYKCKVSNKGLPSSIEKTISKAKGQPREPQVYTLPPSRDELTKNQVSLSCAVKGFYPSDIAVEWESNGQPENNYKTTPPVLDSDGSFFLVSKLTVDKSRWQQGNVFSCSVMHEALHNHYTQKSLSLSPGK
notes: as for B2
CD20 killing EC50 [pM] (CD20 [1]): 10.7 pM
CD19 killing EC50 [pM] (CD19 [2]): 1.2 pM
EC50 (CD19 [3]): 0.0037 µM
EC50 (CD20 [4]): 0.0455 µM

B4: R-TM-19/20_8 (other)
chain 1: not shown
chain 2: GQVQLVQSGAEVKKPGASVKVSCKASGYTFTHYYIYWVRQAPGQGLEWMGGVNPSNGGTHFNEKFKSRVTMTRDTSISTAYMELSRLRSDDTAVYYCARSEYDYGLGFAYWGQGTLVTVSSASTKGPSVFPLAPSSKSTSGGTAALGCLVKDYFPEPVTVSWNSGALTSGVHTFPAVLQSSGLYSLSSVVTVPSSSLGTQTYICNVNHKPSNTKVDKKVEPKSCDKTHTCPPCPAPPVAGPSVFLFPPKPKDTLMISRTPEVTCVVVDVSHEDPEVKFNWYVDGVEVHNAKTKPREEQYNSTYRVVSVLTVLHQDWLNGKEYKCKVSNKGLPSSIEKTISKAKGQPREPQVYTLPPSRDELTKNQVSLWCLVKGFYPSDIAVEWESNGQPENNYKTTPPVLDSDGSFFLYSKLTVDKSRWQQGNVFSCSVMHEALHNHYTQKSLSLSPGK
chain 3: GQVQLVESGGGLVQPGGSLRLSCAASGRTFSNYNMGWFRQAPGQGLEFVAAIDWSGGSPYYADSVKGRFTISRDNSKNTLYLQMNSLRAEDTAVYYCAAPLSYGSTWLADYWGQGTLVTVSSGGGGSGGGGSGGGGSEVQLVESGGGLVQPGGSLRLSCAASGFSFSDFWMSWVRQAPGKGLEWVATISQAGSEKDYVDSVKGRFTISRDNAKKSLYLQMNSLRAEDTAVYYCASGVYSFDYRGQGTLVTVSSEPKSCDKTHTCPPCPAPPVAGPSVFLFPPKPKDTLMISRTPEVTCVVVDVSHEDPEVKFNWYVDGVEVHNAKTKPREEQYNSTYRVVSVLTVLHQDWLNGKEYKCKVSNKGLPSSIEKTISKAKGQPREPQVYTLPPSRDELTKNQVSLSCAVKGFYPSDIAVEWESNGQPENNYKTTPPVLDSDGSFFLVSKLTVDKSRWQQGNVFSCSVMHEALHNHYTQKSLSLSPGK
notes: Three-chain CD19/CD20 targeting module; also called R-TM 19/20_08
CD20 killing EC50 [pM] (CD20 [1]): 14.2 pM
CD19 killing EC50 [pM] (CD19 [2]): 7.1 pM
EC50 (CD19 [3]): 0.0148 µM
EC50 (CD20 [4]): 0.037 µM

B5: R-TM-19/20_3 (other)
chain 1: not shown
chain 2: GQVQLVQSGAEVKKPGASVKVSCKASGYTFTHYYIYWVRQAPGQGLEWMGGVNPSNGGTHFNEKFKSRVTMTRDTSISTAYMELSRLRSDDTAVYYCARSEYDYGLGFAYWGQGTLVTVSSASTKGPSVFPLAPSSKSTSGGTAALGCLVKDYFPEPVTVSWNSGALTSGVHTFPAVLQSSGLYSLSSVVTVPSSSLGTQTYICNVNHKPSNTKVDKKVEPKSCDKTHTCPPCPAPPVAGPSVFLFPPKPKDTLMISRTPEVTCVVVDVSHEDPEVKFNWYVDGVEVHNAKTKPREEQYNSTYRVVSVLTVLHQDWLNGKEYKCKVSNKGLPSSIEKTISKAKGQPREPQVYTLPPSRDELTKNQVSLWCLVKGFYPSDIAVEWESNGQPENNYKTTPPVLDSDGSFFLYSKLTVDKSRWQQGNVFSCSVMHEALHNHYTQKSLSLSPGK
chain 3: GQVQLVESGGGLVQPGGSLRLSCAASGRTFSNYNMGWFRQAPGQGLEFVAAIDWSGGSPYYAASVRGRFTISRDNSKNTLYLQMNSLRAEDTAVYYCAAPLSYGSTWLADYWGQGTLVTVSSEPKSCDKTHTCPPCPAPPVAGPSVFLFPPKPKDTLMISRTPEVTCVVVDVSHEDPEVKFNWYVDGVEVHNAKTKPREEQYNSTYRVVSVLTVLHQDWLNGKEYKCKVSNKGLPSSIEKTISKAKGQPREPQVYTLPPSRDELTKNQVSLSCAVKGFYPSDIAVEWESNGQPENNYKTTPPVLDSDGSFFLVSKLTVDKSRWQQGNVFSCSVMHEALHNHYTQKSLSLSPGK
notes: Three-chain CD19/CD20 targeting module; also called R-TM 19/20_03
CD20 killing EC50 [pM] (CD20 [1]): 4.3 pM
CD19 killing EC50 [pM] (CD19 [2]): 7.9 pM
EC50 (CD19 [3]): 0.019 µM
EC50 (CD20 [4]): 0.0292 µM

Reference: patent EP4566619A1 (AvenCell Therapeutics Inc., dated 2025)
